In patent publication US20240116985A1 (published 2024):
Starred links: 1 amine or outer side, 2 acyl side, 3 side chain; linkers in the order of their positions; H or OH if unused. Positions of bridges follow the written chain, without caps; N, C: chain ends. Non-standard residues stand in square brackets, D forms with d. Primed or numbered codes have the meaning given here. No end group written: not given here. *: point of attachment. PyrS2(3) = (S)-3-amino-1-((pent-4-en-1-yloxy)carbonyl)pyrrolidine-3-carboxylic acid, stapling residue, C=CCCCOC(=O)N1CC[C@@](N[*:1])(C(=O)[*:2])C1; PyrS2″ = (S)-3-amino-1-((pent-4-en-1-yloxy)carbonyl)pyrrolidine-3-carboxylic acid (stapling residue), C=CCCCOC(=O)N1CC[C@@](N[*:1])(C(=O)[*:2])C1; B5(18) = 2,2-bis(4-pentenyl)glycine (2-amino-2-(pent-4-en-1-yl)hept-6-enoic acid), stitching residue, C=CCCCC(CCCC=C)(N[*:1])C(=O)[*:2]; B5(4) = 2,2-bis(4-pentenyl)glycine = 2-amino-2-(pent-4-en-1-yl)hept-6-enoic acid (stitching residue), C=CCCCC(CCCC=C)(N[*:1])C(=O)[*:2]; B5(21) = 2-amino-2-(pent-4-en-1-yl)hept-6-enoic acid, bis(4-pentenyl)glycine (stitching residue), C=CCCCC(CCCC=C)(N[*:1])C(=O)[*:2]; TfeGA = (S)-2-amino-3-((carboxymethyl)(2,2,2-trifluoroethyl)amino)propanoic acid, O=C([C@H](CN(CC(=O)[*:3])CC(F)(F)F)N[*:1])[*:2]; PyrS2 = (S)-3-amino-1-((pent-4-en-1-yloxy)carbonyl)pyrrolidine-3-carboxylic acid, C=CCCCOC(=O)N1CC[C@@](N[*:1])(C(=O)[*:2])C1; TriAzDap = Dap whose side chain is a 1H-1,2,3-triazol-1-yl bearing the bracketed 4-substituent; B5(3) = 2,2-bis(4-pentenyl)glycine (stitching residue), C=CCCCC(CCCC=C)(N[*:1])C(=O)[*:2]; B5 = 2-amino-2-(pent-4-en-1-yl)hept-6-enoic acid, C=CCCCC(CCCC=C)(N[*:1])C(=O)[*:2]; Phe(3-COOH) = N[C@@H](Cc1cccc(C(=O)O)c1)C(=O)O; 2F3MeF = Cc1cccc(C[C@H](N[*:1])C(=O)[*:2])c1F; Phe(2-CF3) = N[C@@H](Cc1ccccc1C(F)(F)F)C(=O)O; Phe(2-CONH2) = NC(=O)c1ccccc1C[C@H](N)C(=O)O; Phe(3,4-F2) = N[C@@H](Cc1ccc(F)c(F)c1)C(=O)O; Phe(2-Cl) = N[C@@H](Cc1ccccc1Cl)C(=O)O; Bta = N[C@@H](Cc1csc2ccccc12)C(=O)O; Lys(iPr) = CC(C)NCCCC[C@H](N)C(=O)O; αAllylPro = C=CC[C@@]1(C(=O)O)CCCN1; tBuAla = CC(C)(C)C[C@H](N)C(=O)O; 3Thi = N[C@@H](Cc1ccsc1)C(=O)O; Cha = N[C@@H](CC1CCCCC1)C(=O)O; PyrS2(4) = not defined here; hSer = N[C@@H](CCO)C(=O)O; MorphCH2 = C1CN(C*)CCO1; Ms = CS(=O)(=O)*

T1: Bcat-Halo (UniProt P35222 1-781)
T1 sequence (looked up): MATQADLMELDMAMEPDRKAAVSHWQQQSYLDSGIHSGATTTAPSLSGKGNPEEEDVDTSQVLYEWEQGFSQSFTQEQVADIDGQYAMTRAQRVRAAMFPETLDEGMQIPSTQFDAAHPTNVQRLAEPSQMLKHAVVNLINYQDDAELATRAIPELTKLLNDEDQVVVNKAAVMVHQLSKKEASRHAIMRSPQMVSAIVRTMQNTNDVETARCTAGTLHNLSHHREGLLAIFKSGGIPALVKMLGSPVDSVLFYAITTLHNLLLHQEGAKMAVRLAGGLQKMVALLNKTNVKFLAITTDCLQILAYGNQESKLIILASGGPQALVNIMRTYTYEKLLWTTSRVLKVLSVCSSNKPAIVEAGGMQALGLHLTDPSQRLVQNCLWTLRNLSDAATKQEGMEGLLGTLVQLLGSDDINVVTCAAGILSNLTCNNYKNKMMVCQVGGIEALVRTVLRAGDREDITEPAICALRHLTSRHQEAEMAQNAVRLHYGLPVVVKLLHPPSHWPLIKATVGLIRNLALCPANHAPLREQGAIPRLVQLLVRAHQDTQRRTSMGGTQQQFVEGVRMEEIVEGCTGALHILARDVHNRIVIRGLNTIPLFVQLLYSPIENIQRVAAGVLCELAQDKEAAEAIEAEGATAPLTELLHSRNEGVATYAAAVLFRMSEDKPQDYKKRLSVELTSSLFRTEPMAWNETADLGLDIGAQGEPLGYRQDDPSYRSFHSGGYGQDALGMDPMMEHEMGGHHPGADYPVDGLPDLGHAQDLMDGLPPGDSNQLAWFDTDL

T2: beta-catenin (in DLD1 TCF/LEF luciferase reporter cells) (UniProt P35222 1-781)
T2 sequence (looked up): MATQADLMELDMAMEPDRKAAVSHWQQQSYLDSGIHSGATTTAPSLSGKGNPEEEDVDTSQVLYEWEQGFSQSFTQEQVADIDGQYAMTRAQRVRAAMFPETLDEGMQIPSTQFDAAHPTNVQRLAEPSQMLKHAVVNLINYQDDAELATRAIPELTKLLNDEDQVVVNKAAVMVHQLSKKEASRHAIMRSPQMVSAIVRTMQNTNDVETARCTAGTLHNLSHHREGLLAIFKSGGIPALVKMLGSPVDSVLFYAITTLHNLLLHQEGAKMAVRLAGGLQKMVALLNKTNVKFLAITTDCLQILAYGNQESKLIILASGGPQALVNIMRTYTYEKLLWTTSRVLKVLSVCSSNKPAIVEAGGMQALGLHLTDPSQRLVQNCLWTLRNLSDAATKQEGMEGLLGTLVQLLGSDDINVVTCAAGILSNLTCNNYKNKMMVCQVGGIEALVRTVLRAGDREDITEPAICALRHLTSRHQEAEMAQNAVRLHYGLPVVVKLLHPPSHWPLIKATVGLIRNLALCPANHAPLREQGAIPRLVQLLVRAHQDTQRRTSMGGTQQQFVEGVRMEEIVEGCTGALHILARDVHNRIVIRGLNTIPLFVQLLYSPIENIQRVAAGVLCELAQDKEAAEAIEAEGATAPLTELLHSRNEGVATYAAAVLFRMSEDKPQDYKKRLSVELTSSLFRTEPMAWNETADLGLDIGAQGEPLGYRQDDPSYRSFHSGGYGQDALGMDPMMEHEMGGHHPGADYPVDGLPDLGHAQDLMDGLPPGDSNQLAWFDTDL

T3: B-cat-Halo (beta-catenin HaloTag NanoBRET construct expressed in HEK293 cells) (UniProt P35222 1-781)
T3 sequence (looked up): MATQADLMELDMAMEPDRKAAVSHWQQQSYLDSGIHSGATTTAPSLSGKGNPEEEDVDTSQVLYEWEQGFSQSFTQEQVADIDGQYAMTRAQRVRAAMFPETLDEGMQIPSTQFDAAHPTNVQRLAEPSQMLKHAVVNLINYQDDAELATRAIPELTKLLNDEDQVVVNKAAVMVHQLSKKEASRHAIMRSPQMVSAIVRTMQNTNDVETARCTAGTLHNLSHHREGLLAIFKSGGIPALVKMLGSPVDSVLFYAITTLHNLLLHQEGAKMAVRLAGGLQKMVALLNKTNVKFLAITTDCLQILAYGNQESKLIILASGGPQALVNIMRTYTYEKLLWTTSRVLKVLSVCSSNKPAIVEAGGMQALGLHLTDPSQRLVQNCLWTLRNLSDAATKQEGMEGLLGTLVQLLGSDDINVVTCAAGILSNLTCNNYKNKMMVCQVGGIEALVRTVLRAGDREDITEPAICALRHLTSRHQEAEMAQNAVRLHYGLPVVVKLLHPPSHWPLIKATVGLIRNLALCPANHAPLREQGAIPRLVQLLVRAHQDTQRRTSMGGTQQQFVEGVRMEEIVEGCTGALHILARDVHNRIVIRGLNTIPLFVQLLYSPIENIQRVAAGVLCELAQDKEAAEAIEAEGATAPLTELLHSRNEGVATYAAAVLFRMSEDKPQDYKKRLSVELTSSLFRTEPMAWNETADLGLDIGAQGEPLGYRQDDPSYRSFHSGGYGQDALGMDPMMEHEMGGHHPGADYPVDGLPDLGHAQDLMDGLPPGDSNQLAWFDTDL

T4: B-cat-Halo (beta-catenin HaloTag NanoBRET construct expressed in HEK293 cells) (UniProt P35222 1-781)
T4 sequence (looked up): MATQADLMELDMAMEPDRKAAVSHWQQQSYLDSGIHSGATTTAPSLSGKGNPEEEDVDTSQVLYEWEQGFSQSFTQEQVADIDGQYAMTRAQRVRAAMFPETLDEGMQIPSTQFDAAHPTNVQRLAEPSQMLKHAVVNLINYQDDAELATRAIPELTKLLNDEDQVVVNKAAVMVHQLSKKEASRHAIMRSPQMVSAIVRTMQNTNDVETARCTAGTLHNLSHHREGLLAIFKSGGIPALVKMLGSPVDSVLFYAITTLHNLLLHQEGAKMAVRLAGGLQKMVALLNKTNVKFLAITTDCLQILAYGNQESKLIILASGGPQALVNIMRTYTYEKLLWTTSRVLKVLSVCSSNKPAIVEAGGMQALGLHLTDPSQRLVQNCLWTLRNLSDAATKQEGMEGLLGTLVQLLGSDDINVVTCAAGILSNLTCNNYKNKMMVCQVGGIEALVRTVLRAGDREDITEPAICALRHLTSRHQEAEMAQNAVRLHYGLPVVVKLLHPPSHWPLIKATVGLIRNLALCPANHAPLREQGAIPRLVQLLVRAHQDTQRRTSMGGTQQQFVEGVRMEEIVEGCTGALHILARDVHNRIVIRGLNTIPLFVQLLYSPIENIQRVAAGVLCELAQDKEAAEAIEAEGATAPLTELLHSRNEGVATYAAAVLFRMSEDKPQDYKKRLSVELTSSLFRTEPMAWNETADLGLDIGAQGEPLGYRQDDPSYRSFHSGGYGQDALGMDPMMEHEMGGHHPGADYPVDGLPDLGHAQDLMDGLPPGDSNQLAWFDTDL

T5: B-cat-Halo (beta-catenin HaloTag fusion expressed in HEK293 cells) (UniProt P35222 1-781)
T5 sequence (looked up): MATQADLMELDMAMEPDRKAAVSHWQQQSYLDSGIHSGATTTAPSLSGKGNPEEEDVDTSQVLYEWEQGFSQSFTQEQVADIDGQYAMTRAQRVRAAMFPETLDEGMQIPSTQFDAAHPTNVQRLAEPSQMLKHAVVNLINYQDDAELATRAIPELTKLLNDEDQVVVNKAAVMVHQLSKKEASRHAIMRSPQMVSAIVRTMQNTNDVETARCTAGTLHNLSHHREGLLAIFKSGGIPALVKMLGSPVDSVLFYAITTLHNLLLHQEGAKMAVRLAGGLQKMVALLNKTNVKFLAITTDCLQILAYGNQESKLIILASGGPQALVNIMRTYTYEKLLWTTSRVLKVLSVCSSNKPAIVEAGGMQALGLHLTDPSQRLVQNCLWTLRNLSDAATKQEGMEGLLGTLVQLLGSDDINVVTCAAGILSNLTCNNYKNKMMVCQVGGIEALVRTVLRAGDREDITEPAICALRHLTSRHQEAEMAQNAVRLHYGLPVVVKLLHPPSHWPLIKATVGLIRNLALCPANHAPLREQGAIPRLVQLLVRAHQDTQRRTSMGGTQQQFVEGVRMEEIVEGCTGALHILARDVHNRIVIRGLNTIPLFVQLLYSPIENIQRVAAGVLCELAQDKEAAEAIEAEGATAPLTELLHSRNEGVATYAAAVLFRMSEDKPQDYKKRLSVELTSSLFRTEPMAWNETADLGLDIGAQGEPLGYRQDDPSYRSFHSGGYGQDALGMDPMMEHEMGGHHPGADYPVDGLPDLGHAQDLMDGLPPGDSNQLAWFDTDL


What was measured:
Assay in all cases: cell-based or functional assay
Bcat-Halo = target: T1, Bcat-Halo
[1] = target: T2, beta-catenin (in DLD1 TCF/LEF …)
[2] = target: T3, B-cat-Halo (beta-catenin HaloTag …)
[3] = target: T4, B-cat-Halo (beta-catenin HaloTag …); remark: listed apart in the source
[4] = target: T5, B-cat-Halo (beta-catenin HaloTag fusion …)

Binder | NanoBRET Abs IC50 (Bcat-Halo) [µM] | DLD1 4% Abs IC50 [1] [µM] | also measured
Ac-[αAllylPro]D[tBuAla][B5(4)]DDAAFL[PyrS2][3Thi]WQ-NH2 (staple 1-4, 4-11) [I-1431] | 14.6 |  | 
[αAllylPro]D[tBuAla][B5(4)]D[Phe(3-COOH)]AAFL[PyrS2″][Phe(2-Cl)][Bta]Q-NH2 (staple 1-4, 4-11) [I-1332] |  | 0.9 | 
Ac-[αAllylPro]D[tBuAla][B5(4)]DDAAFL[PyrS2][3Thi]WS-NH2 (staple 1-4, 4-11) [I-1432] | 14.5 |  | 
Ac-[αAllylPro]D[tBuAla][B5(18)]D[TfeGA]AAF[TriAzDap](MorphCH2)[PyrS2(3)][3Thi][Bta]Q-NH2 (staple 1-4, 4-11; not fully specified) [I-1867] |  |  | NanoBRET Abs IC50 [2]: 16.4 µM
Ac-[αAllylPro]D[tBuAla][B5(4)]DDAAFL[PyrS2][3Thi][Phe(3,4-F2)]S-NH2 (staple 1-4, 4-11) [I-1428] | 40.2 |  | 
Ac-[αAllylPro]N[Cha][B5(4)]DQ[Lys(iPr)]AFN[PyrS2″][Phe(2-CONH2)][Bta][hSer]-NH2 (staple 1-4, 4-11) [I-2168] |  |  | NanoBRET Abs IC50 [3]: > 20 µM
[αAllylPro]D[tBuAla][B5(4)]D[Phe(3-COOH)]AAFL[PyrS2(4)][2F3MeF][Bta]Q-NH2 (staple 1-4, 4-11; not fully specified; reading uncertain) [I-1335] |  | 0.9 | 
[αAllylPro]D[tBuAla][B5]D[Phe(3-COOH)]AAFL[PyrS2][Phe(2-Cl)][Bta]S-NH2 (staple 1-4, 4-11) [I-1333] |  | 1.2 | 
[αAllylPro]D[tBuAla][B5(4)]D[Phe(3-COOH)]AAFF[PyrS2″][Phe(2-CF3)][Bta]Q-NH2 (staple 1-4, 4-11) [I-1341] |  | 3.2 | 
Ac-[αAllylPro]D[tBuAla][B5(18)]D[TfeGA]AAF[TriAzDap](CH2Ppz)[PyrS2(3)][3Thi][Bta]Q-NH2 (staple 1-4, 4-11; not fully specified) [I-1864] |  |  | NanoBRET Abs IC50 [2]: > 20 µM
Ac-[αAllylPro]DS[B5(21)]DDAAFL[PyrS2″][3Thi][Bta]L-NH2 (staple 1-4, 4-11) [I-1414] | > 20 |  | 
Ms-[αAllylPro]D[tBuAla][B5(3)]DDAAFN[PyrS2″][3Thi][Bta]Q-NH2 (staple 1-4, 4-11) [MeSO2-PL3-Asp-Npg-B5-Asp-Asp-Ala-Ala-Phe-Asn-PyrS2-3Thi-BztA-Gln-NH2] |  |  | NanoBRET Abs IC50 [4]: > 20 µM
Ac-[αAllylPro]N[Cha][B5(4)]DQ[Lys(iPr)]AFN[PyrS2″]F[Bta][hSer]-NH2 (staple 1-4, 4-11) [I-2167] |  |  | NanoBRET Abs IC50 [3]: > 20 µM
